# In paper PMC5240623:
# pKd: −log10 of the molar value.
# Legend:
# [1] = target: EmGATAD2A/B coiled-coil domain (amino acids 58–100), thioredoxin fusion (E. muelleri); assay: ITC; fusion peptides left uncleaved; 50 mM Hepes pH 7.4, 150 mM NaCl, 298 K; MicroCal Auto-iTC200, 20–24 injections; HsMBD2 (1.8 mM), EmGATAD2A/B (2.74 mM), DmGATAD2A/B (2.5 mM) injected into HsGATAD2A (100 μM), EmMBD2/3 (270 μM), DmMBD2/3 (250 μM); one-site binding model
# [2] = system: EmMBD2/3a coiled-coil domain (amino acids 324–354), thioredoxin fusion; assay: AUC; sedimentation velocity, 40,000 rpm, 293 K, 20 mM Tris pH 8.0, 150 mM NaCl; thioredoxin fusions left uncleaved; each peptide in isolation and a 100 μM mixture
# [3] = system: EmMBD2/3 MBD (Ephydatia muelleri); assay: SPR; conditions: SPR: 10 mM HEPES pH 7.4, 50 mM NaCl, 3 mM MgCl2, 0.1 mM EDTA, 1 mM DTT, 0.05% polysorbate 20, temperature not stated, NMR conditions not in material
# [4] = target: EmMBD2/3a coiled-coil domain (amino acids 324–354), thioredoxin fusion (E. muelleri); assay: ITC; fusion peptides left uncleaved; 50 mM Hepes pH 7.4, 150 mM NaCl, 298 K; MicroCal Auto-iTC200, 20–24 injections; HsMBD2 (1.8 mM), EmGATAD2A/B (2.74 mM), DmGATAD2A/B (2.5 mM) injected into HsGATAD2A (100 μM), EmMBD2/3 (270 μM), DmMBD2/3 (250 μM); one-site binding model
# [5] = target: DmMBD2/3 coiled-coil domain (amino acids 309–339), thioredoxin fusion (D. melanogaster); assay: as above
# [6] = target: HsGATAD2A coiled-coil domain, uncleaved fusion peptide (human) (UniProt Q86YP4); assay: as above
# HsGATAD2A coiled-coil domain, uncleaved fusion peptide (human), sequence (Q86YP4 137-178): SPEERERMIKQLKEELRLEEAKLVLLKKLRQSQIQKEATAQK
# HsMBD2 coiled-coil domain, uncleaved fusion peptide, sequence (Q9UBB5 360-393): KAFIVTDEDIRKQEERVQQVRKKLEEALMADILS
# DmMBD2/3 coiled-coil domain (amino acids 309–339), thioredoxin fusion (D. melanogaster), sequence (main, as listed by the source): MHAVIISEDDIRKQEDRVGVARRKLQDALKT
substance,measurement,setting,value
"HsMBD2 coiled-coil domain, uncleaved fusion peptide (from UniProt Q9UBB5 360-393) (domain or fragment)",pKd,[1],5.89
same,dH,[1],-8.92 kcal/mol
same,stoichiometry N,[1],1.1
"EmGATAD2A/B coiled-coil domain (amino acids 58–100), thioredoxin fusion",percent of heterodimeric species in a 100 μM mixture,[2],"heterodimeric (45.1 kDa, 58.1%)"
"GAGGCGCTCGGCGGCAG (double strand) [mCpG 17 bp, 3'-biotin]",pKd,"[3]; 5-methyl-C at C9 of strand 1 and C8 of strand 2 (central CpG), two other CpGs unmethylated",6.37
"EmGATAD2A/B coiled-coil domain (amino acids 58–100), thioredoxin fusion (domain or fragment)",pKd,[4],5.04
same,dH,[4],-9.8 kcal/mol
same,stoichiometry N,[4],0.8
"DmGATAD2A/B coiled-coil domain (amino acids 183–223), thioredoxin fusion (domain or fragment)",pKd,[5],5.13
same,dH,[5],-27.6 kcal/mol
same,stoichiometry N,[5],1
"EmMBD2/3a coiled-coil domain (amino acids 324–354), thioredoxin fusion (domain or fragment)",pKd,[6],6.42
same,dH,[6],-8.99 kcal/mol
same,stoichiometry N,[6],1.3
"GAGGCGCTCGGCGGCAG (double strand) [CpG(x3) 17 bp, 3'-biotin]",pKd,[3],4.19
